Source: paper PMC6470140 (Nature Communications, 2019)

Target: synthetic peptide representing residues 620-635 of the BDBV GP2 stalk epitope (Bundibugyo virus)
Test: crystal structure
Conditions: both partners purified

B1: BDBV223 Fab (Fab, V domains shown)
VH: QVQLQQWGAGLLKPSETLSLTCAVYGGSFTTTYWNWIRQPPGKGLEWIGEVNYSGNANYNPSLKGRVAISVDTSKNQFSLRLNSVTAADTAIYYCTSRIRSHIAYSWKGDVWGKGTTVTVSS
VL: EIVMTQSPGTLSLSPGERATLSCRASQSVPRNYIGWFQQKPGQAPRLLIYGASSRAAGFPDRFSGSGSGTDFTLTITRLEPEDFAMYYCHQYDRLPYTFGQGTKLEIK
- binding result: binds
